Biological target: PFV integrase wt (INPFV) (prototype foamy virus, UniProt P14350 752-1143)
Experiment: fluorescence anisotropy; 1 mM Mg2+; stoichiometric IN + DNA; 20 mM Tris pH 7.2, 50 mM NaCl, 1 mM DTT, 10% DMSO, 1 mM (or 10 mM) Mg2+, 25 °C
Conditions: protein: recombinant, tags: His-tag, chain copies: 4

B1: Fl-DNA#13 (processed LTR end) (dsDNA)
DNA 1: TATACAAAATTCCATGACA
DNA 2: ATTGTCATGGAATTTTGTATA
Q: Does B1 bind (label: fluorescein, 5' overhang 2 nt on non-transferred strand)?
A: binds

B2: Fl-DNA#8 (dsDNA)
DNA 1: GGAATCTAGCGGCGCATCAAT
DNA 2: ATTGATGCGCCGCTAGATTCC
Q: Does B2 bind (label: fluorescein, blunt)?
A: binds

B3: Fl-DNA#9 (dsDNA)
DNA 1: GGAATCTAGCGGCGCATAGGT
DNA 2: ACCTATGCGCCGCTAGATTCC
Q: Does B3 bind (label: fluorescein, blunt)?
A: binds

B4: Fl-PFVCAAT (Fl-DNA#1) (dsDNA)
DNA 1: TATACAAAATTCCATGACAAT
DNA 2: ATTGTCATGGAATTTTGTATA
Q: Does B4 bind (label: 5'-fluorescein on reactive strand, blunt)?
A: binds

— PMC5656594, “Probing Resistance Mutations in Retroviral Integrases by Direct Measurement of Dolutegravir Fluorescence”
